Results published in the DeepSol protein solubility set.

test: soluble on expression in E. coli; label from the status in PepcDB or PDB records

| Sequence | soluble on expression in E. coli |
| --- | --- |
| REFAPPPNLPDPKFESKAALLAARGPEELLCFTERLEDLVCFWEEAASAGVGPGQYSFSYQLEDEPWKLCRLHQAPTARGAVRFWCSLPTADTSSFVPLELRVTAASGAPRYHRVIHINEVVLLDAPVGLVARLADESGHVVLRWLPPPETPMTSHIRYEVDVSAGQGAGSVQRVEILEGRTECVLSNLRGRTRYTFAVRARMAEPSFGGFWSEWSEPVSLLTPSDLD | soluble |
| REGVFRAERQRKAGELIISREPLTGLDDAARSQALLALVRRKGLELLPWTPELRQWQARVALLRSLDIDKSATSEWPDLSDAQLLATLENWLMPYLGKVT | not soluble |
| RELLMMTPSKELCQVVGNDVLEIEKVSDHQLKLAGITKVGQELRVNIDLHVDDDMIELDTLEQTRKQLTTRLSKHRFKLQLNLNVANC | not soluble |
| RGRLKVFLGAAPGVGKTYAMLQAAHAQLRQGVRVMAGVVETHGRAETEALLNGLPQQPLLRTEYRGMTLEEMDLDALLKAAPSLVLVDELAHTNAPGSRHTKRWQDIQELLAAGIDVYTTVNVQHLESLNDQVRGITGVQVRETLPDWVLQEAFDLVLIDLPPRELLERLRDGKVYVPEQARAAIDAFFTQTNLTALREMAMQTAAAQVDNDLAQGYRQLGQSAP | soluble |
| RLHEILASGVYANHPSPLTIALGKDISGRPVVSDLAKMPHALVAGTTGSGKSVAINAIILSLVYKASPDNVRLILIDPKMLELSVYDGIPHLLTPVVTDMRDAASALNWCVAEMERRYKLMSALGVRNLAGYNQKVREAVKNEEPLTNPLNPVPGSPELLEEMPLIVVVIDELADLMMIVGKKVEKLIARLAQKARAAGIHLLLATQRPSV | not soluble |
| RPAPLWAVVADAAVQPAMAAGNDDFETARALDTARELVAGLREGVDSLGGDVAEFKAAIPQHNFEQICDGCFAPIDPGVEPDYVVAHRVSCCMIYHSPTAGKCTSCPHQDKDVRKNALIAASESF | not soluble |
| RPVWYGDPISTSTSHRDLMLVVDLSYSMSQEDMQSGQQMVDRLTAVKQVLSEFIAKREGDRIGLILFADHAYLQTPLTLDRQTVANQLNQTVLKLIGTQTAIGEGIGLATKTFIDSDAPQRVMILLSDGSNTAGVLDPLEAANIAKQYNTTIYTVGVGAGEMVVKDFLFSRKVNTAQDLDEKTLQTIATTTGGHYFRARNQQDLQNIYDTINQLEPISQSN | not soluble |
| RQGELSIACLPVFSQSFLPLLLPPFLSRYPEVSLQIVPQESPLLEEWLSAQRHDLGLTETLHTPAGTERTPLLTLNEVCVLPAGHPLAAQATLTPADFQGENYISLSRTDSYRQLLDALFLEHQVKRRMVVETHSAASICAMVRAGA | not soluble |
| RRQHQHLLESLVHSTAKQQGDFTKTAELATELLCQNLAVSLVSIWIFSADQGTQSLVAQFGSMALQDTYRPSLLHTVPRYLNELKNYRHIDAGNTLIDPRLTELVDSYFIPRQILSSLDVGIRINGHLEGVLCIERAQVTHHWHDSEIHLACQMADQLALTLATKHAYDKEERLSLFRCAIEQSRQMSM | not soluble |
| RSKTVILAKNLPAGTLAAEIQETFSRFGSLGRVLLPEGGITAIVEFLEPLEARKAFRHLAYSKFHHVPLYLEWAPIGVFGAAPQKKDSQHEQPAEKAE | soluble |
| RSLIAGYDPLILDVSHGFNISEFARIANTLDDTTYTSLTPMQLLKAMDTLEGIESLRRFAAILVGGAPLRADDLRAAKELGINVVTTYGSSETSGGCVYNGRPIPGAKVRVV | not soluble |
| RTNRTGMATAIPDSLHKIFYTAAGRRVEDAGGILPDIEVKQDTAATLLYYMAINNDVFDFVTGYVLKHKTIAKPEDFSITNEDYAAFCKMMEEKKFDYDRQSGKMLDKLEELAKIEGYLPEANSELKALREKLKPNLSRDLLRFKKEITNYLNNEIVTRYYYERGSIRQSLPEDKVVKEAIKLLKDHPEQIRQILAAPKAENKG | not soluble |
| RVMDMKAPIKVYMTKKLLGVKPSTSVQEASRLMMEFDVGSLVVINDDGNVVGFFTKSDIIRRVIVPGLPYDIPVERIMTRNLITANVNTPLGEVLRKMAEHRIKHILIEEEGKIVGIFTLSDLLEASRRRLETAISAE | soluble |
| RVTDAEHPGVQLEFTNNKGELVSYEAISPWQKNAAGVNFHTFYGFGAVDLDEAMKRARMTNNVLPAQIITPWANNATEVSVPDASLAGGSSNIAITDDITVESVQVKLTLEHSRLPDLAIELVSPSGTRSVLQTPRNGLVGQSLDPNITGYENQLMLSNQFYGENAKGEWTLRAIDTNGDEVFSFIAYFNSSAIYDVPMANNAKPGVIKNWSMRIFGH | not soluble |
| SACSRDTPEAPQSTSATSSAAPSTTSASTTAPSSASASSITQTSKVSSQAEAPTSVPPMLDSKHKNVQRAFEQFGALAPESLFAQFDTCDANGVQNSMACSGHDVGQFQFFKSDAKAASTTQLLTELRSSRVIEDTGRR | not soluble |
| SADESDMRNELNDIQARADQLGDESLESTRRMLQLVEESKDAGIRTLVMLDEQGEQLERIEEGMDQINKDMKEAEKNLTDLGNLCGLCPCPCNKLKGGGQSWGNNQDGVVSSQPARVVDEREQMAISGGFIRRVTNDARENEMDENLEQVGSIIGNLRHMALDMGNEIDTQNRQIDRIMDMADSNKTRIDEANQRATKMLGSG | soluble |
| SADLLALLRDFTIHNREIKEDGDDIIFDNYAWNKSSKTNYIVWGTDKHGLIKEYYPLESIVYFLKNINLSHAQFVRQAAANGIFGIRLPDRQKLLDYLQGKITTCEAIDHSVPVDISQRRLVILQNNDKDPNDATGEPSSKRLCLEDGNSIDMANEGHSTDQQNEINLKESQRLAAKLQLPPGGKMTSDLYQNDPSKASTLIEHIPVDKIQMLRAKFRANHQQTIKPDESDVVPDKGKPLKSAIDAEEPIKPFVSKIQLGVTKNFVKEIMAREYTWRTRTTVLESHGKQFFDSVVLGTLKSVKLKEENLQHHTQRIGPHTPFPASNGHAGNVQQPAQAPTHYSRYDQERFTGAGQDTAGFKIDTMGTYHGKGLSSMMTDGSQANLTSRDPRANRQPAPRGLPPVSPGATPVDTGKGVTKANRAKSRVPIIIIPAAPTSLITMYNAKEILQDLRFEKTEDKKANGCRRDNDLLIQRLKSDGRTVPYRVIDQPNKLNREDWDRVVAVFVQGPAWQFKNWPIGSDPVEIFSLVKAFHLKYAHMPLHPDVKKWNVHVIQLDDHRHLDKANFQQIWDILDRHMV | soluble |
| SAEGDYYTLGNRQRIPRDPFREQSLASRFMDDDFGLPPFPNELSMDWPGWARPRLSHRLDAPWTGSLRSGFPRASMSSPQGFSSVYTESPRRASAPPTDSDEPWKVCVNVHSFKPEELNVKTKDGFVEVSGKHEEKQDEGGIVTKNFTKKIQIPLDVDPVTVFASLSPEGVLIIEARQTPPYYLYSNEMPAESMEEPEARPQEPSMTSTTTFEARE | soluble |
| SAENHCELLPPAPSGLGAGLGGGLCRRCSAGMGALAQRPGGVSKWVRLNVGGTYFLTTRQTLCRDPKSFLYRLCQADPDLDSDKDETGAYLIDRDPTYFGPVLNYLRHGKLVINKDLAEEGVLEEAEFYNITSLIKLVKDKIRERDSRISQMPVKHVYRVLQCQEEELTQMVSTMSDGWKFEQLVSIGSSYNYGNEDQAEFLCVVSKELHNTPYGTTSEPSEKAKILQERGSRM | soluble |
| SAGNAEPPPAGAACPQDRRSCSGRAGGDRVWEDGEHPAKKLKSGGDEERREKPPKRKIVLLMAYSGKGYHGMQRNVGSSQFKTIEDDLVSALVRSGCIPENHGEDMRKMSFQRCARTDKGVSAAGQVVSLKVWLIDDILEKINSHLPSHIRILGLKRVTGGFNSKNRCDARTYCYLLPTFAFAHKDRDVQDETYRLSAETLQQVNRLLACYKGTHNFHNFTSQKGPQDPSACRYILEMYCEEPFVREGLEFAVIRVKGQSFMMHQIRKMVGLVVAIVKGYAPESVLERSWGTEKVDVPKAPGLGLVLERVHFEKYNQRFGNDGLHEPLDWAQEEGKVAAFKEEHIYPTIIGTERDERSMAQWLSTLPIHNFSATALTAGGTGAKVPSPLEGSEGDGDTD | soluble |
| SAGRGKLIAVIGDEDTVTGFLLGGIGELNKNRHPNFLVVEKDTTINEIEDTFRQFLNRDDIGIILINQYIAEMVRHALDAHQRSIPAVLEIPSKEHPYDAAKDSILRRAKGMFTAEDLR | soluble |
| SANEAYPCPCDIGHRLEYGGLGREVQVEHIKAYVTKSPVDAGKAVIVIQDIFGWQLPNTRYIADMISGNGYTTIVPDFFVGQEPWDPSGDWSIFPEWLKTRNAQKIDREISAILKYLKQQCHAQKIGIVGFCWGGTAVHHLMMKYSEFRAGVSVYGIVKDSEDIYNLKNPTLFIFAENDVVIPLKDVSLLTQKLKEHCKVEYQIKTFSGQTHGFVHRKREDCSPADKPYIDEARRNLIEWLNKYM | soluble |
| SANSGCKDVTGPDEESFLYFAYGSNLLTERIHLRNPSAAFFCVARLQDFKLDFGNSQGKTSQTWHGGIATIFQSPGDEVWGVVWKMNKSNLNSLDEQEGVKSGMYVVIEVKVATQEGKEITCRSYLMTNYESAPPSPQYKKIICMGAKENGLPLEYQEKLKAIEPNDYTGKVSEEIEDIIKKGETQTL | soluble |
| SAPPLLSLPLCILPPGSGSPRLVCYCERDSGGDGDRDDFNLYVTDAAELWSTCFSPDSLARLKARFGLSGAEDIHSRFRAACQQQAVTVSLQEDRALITLSGDTPALAFDLSKVPSPEAAPRLQALTLSLAEHVCNLERRLAAAEETITSPKKNTQPAGTQFLPELDHQRGSSGPGVRRRCPGESLINPGFKSKKPAAGVDFDET | soluble |
| SAPVEHVVADAGAFLRHAALQDIGKNIYTIREVVTEIRDKATRRRLAVLPYELRFKEPLPEYVRLVTEFSKKTGDYPSLSATDIQVLALTYQLEAEFVGVSHLKQEPQKVKVSSSIQHPETPLHISGFHLPYKPKPPQETEKGHSACEPENLEFSSFMFWRNPLPNIDHELQELLIDRGEDVPSEEEEEEENGFEDRKDDSDDDGGGWITPSNIKQIQQELEQCDVPEDVRVGCLTTDFAMQNVLLQMGLHVLAVNGMLIREARSYILRCHGCFKTTSDMSRVFCSHCGNKTLKKVSVTVSDDGTLHMHFSRNPKVLNPRGLRYSLPTPKGGKYAINPHLTEDQRFPQLRLSQKARQKTNVFAPDYIAGVSPFVENDISSRSATLQVRDSTLGAGRRRLNPNASRKKFVKKR | soluble |
| SASATAPAAAVPTLASPLEQLRHLAEELRLLLPRVRVGEAQETTEEFNREMFWRRLNEAAVTVSREATTLTIVFSQLPLPSPQETQKFCEQVHAAIKAFIAVYYLLPKDQGITLRKLVRGATLDIVDGMAQLMEVLSVTPTQSPENNDLISYNSVWVACQQMPQIPRDNKAAALLMLTKNVDFVKDAHEEMEQAVEECDPYSGLLNDTEENNSDNHNHEDDVLGFPSNQDLYWSEDDQELIIPCLALVRASKACLKKIRMLVAENGKKDQVAQLDDIVDISDEISPSVDDLALSIYPPMCHLTVRINSAKLVSVLKKALEITKASHVTPQPEDSWIPLLINAIDHCMNRIKELTQSELEL | soluble |
